# Laboratory results taken from patent US20260029399A1.
# Columns and labels:
# Assay in all cases: cell-based or functional assay
# [1] = target: T1, IL-13Rα1 receptor on Jurkat cells (UniProt P78552)
# T1 sequence: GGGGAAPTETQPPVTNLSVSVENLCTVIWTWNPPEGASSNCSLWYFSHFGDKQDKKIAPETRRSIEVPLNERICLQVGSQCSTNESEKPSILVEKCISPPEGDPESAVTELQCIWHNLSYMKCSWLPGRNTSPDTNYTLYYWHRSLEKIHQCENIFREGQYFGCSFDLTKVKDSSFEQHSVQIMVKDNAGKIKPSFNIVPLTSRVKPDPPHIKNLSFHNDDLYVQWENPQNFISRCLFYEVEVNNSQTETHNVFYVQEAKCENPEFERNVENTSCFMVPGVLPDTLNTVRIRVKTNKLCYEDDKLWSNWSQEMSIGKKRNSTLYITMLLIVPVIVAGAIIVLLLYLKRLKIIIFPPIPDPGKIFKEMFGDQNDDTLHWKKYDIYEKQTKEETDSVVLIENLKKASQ
# [2] = target: CMV C7 TCR on C7 TCR-expressing T cells
# CMV C7 TCR on C7 TCR-expressing T cells, sequence (chain, as listed by the source): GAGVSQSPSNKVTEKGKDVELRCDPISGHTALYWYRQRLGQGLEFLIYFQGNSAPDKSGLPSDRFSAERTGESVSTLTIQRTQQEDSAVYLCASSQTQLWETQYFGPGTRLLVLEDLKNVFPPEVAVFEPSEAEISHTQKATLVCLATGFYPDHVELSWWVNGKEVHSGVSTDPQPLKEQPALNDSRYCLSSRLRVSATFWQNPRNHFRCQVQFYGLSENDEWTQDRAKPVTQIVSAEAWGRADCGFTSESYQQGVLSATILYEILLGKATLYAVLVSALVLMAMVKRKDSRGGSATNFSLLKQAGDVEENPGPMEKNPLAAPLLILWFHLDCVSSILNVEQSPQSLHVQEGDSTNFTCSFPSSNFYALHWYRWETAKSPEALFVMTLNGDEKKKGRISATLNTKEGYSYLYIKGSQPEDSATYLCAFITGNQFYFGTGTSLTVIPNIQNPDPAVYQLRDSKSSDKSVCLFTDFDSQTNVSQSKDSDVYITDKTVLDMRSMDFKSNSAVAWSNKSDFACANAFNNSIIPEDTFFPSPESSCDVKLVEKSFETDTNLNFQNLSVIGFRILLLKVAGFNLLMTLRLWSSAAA
# [3] = target: IG4 TCR (variant not stated) on IG4 TCR-expressing T cells
# [4] = target: 868 TCR (Beta Chain-P2A-Alpha Chain) on 868 TCR-expressing T cells
# 868 TCR (Beta Chain-P2A-Alpha Chain) on 868 TCR-expressing T cells, sequence (chain, as listed by the source): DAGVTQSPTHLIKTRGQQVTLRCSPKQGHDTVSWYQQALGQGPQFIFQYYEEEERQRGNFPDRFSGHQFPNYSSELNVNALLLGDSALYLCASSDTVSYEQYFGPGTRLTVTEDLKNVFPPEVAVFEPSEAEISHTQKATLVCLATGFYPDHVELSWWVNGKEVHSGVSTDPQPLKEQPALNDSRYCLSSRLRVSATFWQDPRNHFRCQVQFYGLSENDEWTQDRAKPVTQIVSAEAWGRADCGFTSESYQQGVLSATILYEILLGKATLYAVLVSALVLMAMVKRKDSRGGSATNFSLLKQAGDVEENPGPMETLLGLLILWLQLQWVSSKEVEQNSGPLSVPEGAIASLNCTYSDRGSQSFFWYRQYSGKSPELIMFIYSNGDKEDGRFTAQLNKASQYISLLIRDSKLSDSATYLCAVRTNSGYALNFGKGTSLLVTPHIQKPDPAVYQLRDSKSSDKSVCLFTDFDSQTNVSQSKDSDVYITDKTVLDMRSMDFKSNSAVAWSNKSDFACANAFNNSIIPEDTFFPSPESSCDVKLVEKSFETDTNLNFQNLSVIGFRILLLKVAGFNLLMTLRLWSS
substance,measurement,setting,value
"IL-13 - CD8α stalk linker (SEQ ID NO: 4) - PDGFR transmembrane domain, displayed on lentivirus (from UniProt P35225 35-146) (ligand)",infection of Jurkat cells bearing the IL13Rα1 receptor (GFP reporter),[1],88.5%
"IL-13 - GAPGAS linker (SEQ ID NO: 5) - PDGFR transmembrane domain, displayed on lentivirus (from UniProt P35225 35-146) (ligand)",infection of Jurkat cells bearing the IL13Rα1 receptor (GFP reporter),[1],1%
"IL-13 - PDGFR linker (SEQ ID NO: 3) - PDGFR transmembrane domain, displayed on lentivirus (from UniProt P35225 35-146) (ligand)",infection of Jurkat cells bearing the IL13Rα1 receptor (GFP reporter),[1],6.1%
"IL-13 extracellular targeting domain: full-length IL-13 - IgG4 hinge linker - PDGFR transmembrane domain, displayed on lentivirus (from UniProt P35225 35-146) (ligand)",transduction (cells expressing the GFP reporter after mixing),[1],85.2%
disulfide-stabilized CMV NLV pMHC displayed on lentivirus (peptide-MHC),transduction rate,[2],21.8%
disulfide-stabilized NYESO-1 pMHC displayed on lentivirus (peptide-MHC),transduction rate,[3],19%
disulfide-stabilized SL9 pMHC displayed on lentivirus (peptide-MHC),transduction rate,[4],22.1%
